# Experimental data reported in publication PMC7967050.
# Biological target: Recombinant human CD38 extracellular domain (amino acids 43–300, hCD38-ECD) (human) (UniProt P28907)
# Assay: BLI; Octet Red96, room temperature; biotin conjugated hCD38-ECD captured on SA biosensor; scFv in PBS, 0.02% Tween-20, 0.05% BSA, pH 7.4; association 300 s, dissociation 1200 s; 1:1 Langmuir model; for RP02 (biphasic dissociation) only the initial 0-330 s fitted, apparent KD
binder,measurement,value
"anti-CD38 scFv antibody RP02 (scFv, V domains shown) VH: PAQLVESGPGLVKPSGTLSLTCAVSGGSISSSNWWSWVRQPPGKGLEWIGEIYHSGSTNYNPSLKSRVTISVDKSKNQFSLKLSSVTAADTAVYYCAREDYYYYMDVWGKGTTVTVQS VL: QSVLTQPPSVSAAPGQKVTISCSGSSSNIGNNYVSWYQQLPGTAPKLLIYDNNKRPSGIPDRFSGSKSGTSATLGITGLQTGDEADYYCGTWDSSLSAGVFGGGTKLTVL",Kd,8.6 nM
